In paper PMC5030662:
“And” between values parts separate entries of the source, which are not always exact repeats. Identical values can stand only once.

B1: OSK1 (peptide)
chain: GVIINVKCKISRQCLEPCKKAGMRFGKCMNGKCHCTPK
B2: AgTx2 (peptide)
chain: GVPINVSCTGSPQCIKPCKDAGMRFGKCMNRKCHCTPK

Key:
[1] = biological target: voltage-gated potassium channel KV1.6 (rat) (UniProt P17659)
[2] = biological target: KcsA-KV1.3 hybrid channel; test: competitive binding on spheroplasts by confocal fluorescence microscopy
[3] = biological target: KcsA-KV1.1 hybrid channel; test: as above

Sequence of UniProt P17659 (P17659 whole entry): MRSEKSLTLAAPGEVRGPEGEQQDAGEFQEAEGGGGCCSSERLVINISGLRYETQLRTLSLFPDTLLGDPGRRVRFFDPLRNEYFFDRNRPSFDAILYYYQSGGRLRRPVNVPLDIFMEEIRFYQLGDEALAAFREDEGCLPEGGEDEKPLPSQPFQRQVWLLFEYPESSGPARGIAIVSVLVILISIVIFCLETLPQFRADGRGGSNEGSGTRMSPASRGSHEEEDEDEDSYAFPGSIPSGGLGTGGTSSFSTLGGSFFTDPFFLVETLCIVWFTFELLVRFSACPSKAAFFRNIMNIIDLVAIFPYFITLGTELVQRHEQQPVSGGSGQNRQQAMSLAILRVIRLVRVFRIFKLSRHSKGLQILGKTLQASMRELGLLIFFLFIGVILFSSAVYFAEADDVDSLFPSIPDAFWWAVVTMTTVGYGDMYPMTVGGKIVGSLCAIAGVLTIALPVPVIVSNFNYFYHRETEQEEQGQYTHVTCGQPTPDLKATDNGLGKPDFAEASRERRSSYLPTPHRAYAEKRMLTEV

| Molecule | IC50 of inhibition of KV1.6 currents, two-electrode voltage clamp in Xenopus oocytes [1] | Kd [2] | Kd [3] |
| --- | --- | --- | --- |
| AgTx2 (from UniProt P46111 1-38) (peptide) | 92 nM | – | – |
| OSK1 (from UniProt P55896 1-38) (peptide) | 71 nM | – | – |
| B1 | – | 0.9 nM and 0.7 nM | 1.31 nM and 1.42 nM |
| B2 | – | 0.031 nM and 0.03 nM | 0.049 nM and 0.067 nM |
